We go through two molecules from article PMC13247719.

Changes are numbered by the printed parent chain. Read-outs that look alike come from different tables or passages of the source.

Common to all, as to experiment: SPR
The target of series [1] is T1, LIN28A (mouse, UniProt Q8K3Y3 1-209).
T1 sequence: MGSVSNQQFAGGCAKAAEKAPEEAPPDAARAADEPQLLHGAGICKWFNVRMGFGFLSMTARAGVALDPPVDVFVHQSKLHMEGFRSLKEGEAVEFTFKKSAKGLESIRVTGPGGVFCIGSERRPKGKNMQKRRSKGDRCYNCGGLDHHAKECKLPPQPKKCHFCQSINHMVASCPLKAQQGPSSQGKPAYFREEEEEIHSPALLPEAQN

The next series addresses T2, LIN28A H148A (mouse, UniProt Q8K3Y3 1-209, H148A).
T2 sequence: T1 sequence with H148A

The next series concerns the target T3, LIN28A CSD (mouse, UniProt Q8K3Y3 16-136).
T3 sequence: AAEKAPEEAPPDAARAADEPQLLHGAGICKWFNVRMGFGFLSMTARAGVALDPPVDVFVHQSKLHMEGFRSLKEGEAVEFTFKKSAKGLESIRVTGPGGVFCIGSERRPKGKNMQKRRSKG

The target in a further series is T4, LIN28A H162A (mouse, UniProt Q8K3Y3 1-209, H162A).
T4 sequence: T1 sequence with H162A

In another series the target is T5, LIN28A I167A (mouse, UniProt Q8K3Y3 1-209, I167A).
T5 sequence: T1 sequence with I167A

Another series has as its target T6, LIN28A Y140A (mouse, UniProt Q8K3Y3 1-209, Y140A).
T6 sequence: T1 sequence with Y140A

Series [2] concerns the target T1, LIN28A. This is another data set of the same source.

In the series with LIN28A [1], GGGGUAGUGAUUUUACCCUGUUUAUGAGAU (structured_RNA) [preE-let-7f-1 UGAG] gave a Kd of 387 nM.

Take GGGGUAGUGAUUUUACCCUGUUUAGGAGAU (structured_RNA) [preE-let-7f-1 biotin]: the dissociation constant Kd was 276 nM with LIN28A H148A; 808 nM with LIN28A CSD; 382 nM in the series with LIN28A H162A; 99.5 nM with LIN28A I167A; 410 nM with LIN28A Y140A; 92 nM in the series with LIN28A [2].
